Experimental data: patent US20100305026A1

Target: CD44v6 (endogenous human CD44 variant isoforms containing exon v6) (human), P16070
Assay: cell-based or functional assay

B1: human CD44v6 14-mer peptide having SEQ ID NO: 2 (peptide)
peptide: KEQWFGNRWHEGYR
**Q.** With B1 as the binder, how does the entry of InlB-coated latex beads into HeLa cells (block of entry) read?
**A.** 100%
